Experimental data reported in patent US5854204A, “Aβ peptides that modulate β-amyloid aggregation” (priority 1996, dated 1998).

Experiments:
Aβ peptide = Aβ peptide (Homo sapiens, UniProt P05067); conditions: Camilleri et al. (1994); cited from earlier work
β-AP1-40 = biological target: T1, β-AP1-40 (Homo sapiens, UniProt P05067); test: Static aggregation assay (SDS-PAGE); type: biochemical
T1 construct: Natural β-AP (β-AP1-40) was obtained commercially from Bachem (Torrance, Calif.); purchased Bachem (Torrance, Calif.)
T1 sequence (P05067 672-711): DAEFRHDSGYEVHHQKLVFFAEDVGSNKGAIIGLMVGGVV
Description: In a third assay, β-AP aggregation was measured by visualization of the peptide aggregates using SDS-polyacrylamide gel electrophoresis (SDS-PAGE). In this assay, β-AP solutions were allowed to aggregate over a period of time and then aliquots of the reaction were run on a standard SDS-PAGE gel. Typical solution conditions were 200 μM of β-AP1-40 in PBS at 37° C. for 8 days or 200 μM β-AP1-40 in 0.1M sodium acetate at 37° C. for 3 days. The peptide aggregates were visualized by Coomassie blue staining of the gel or, for β-AP solutions that included a biotinylated β-AP modulator, by western blotting of a filter prepared from the gel with a streptavidin-peroxidase probe, followed by a standard peroxidase assay. The β-AP aggregates are identifiable as high molecular weight, low mobility bands on the gel, which are readily distinguishable from the low molecular weight, high mobility β-AP monomer or dimer bands.

natural β-AP (β-AP1-40) = biological target: T2, natural β-AP (β-AP1-40) (Homo sapiens, UniProt P05067); test: Optical density (turbidity, A400 nm) aggregation assay; type: biochemical
T2 construct: Natural β-AP (β-AP1-40) was obtained commercially from Bachem (Torrance, Calif.); purchased Bachem (Torrance, Calif.)
T2 sequence (P05067 672-711): as above
Description: In one assay, β-AP aggregation was measured by determining the increase in turbidity of a solution of natural β-AP over time in the absence or presence of various concentrations of the modulator. Turbidity of the solution was quantitated by determining the optical density at 400 nm (A400 nm) of the solution over time.
The aggregation of natural β-AP in the absence of modulator was determined as follows. β-AP1-40 was dissolved in hexafluoro isopropanol (HFIP; Aldrich Chemical Co., Inc.) at 2 mg/ml. Aliquots of the HFIP solution (87 μl) were transferred to individual 10 mm×75 mm test tubes. A stream of argon gas was passed through each tube to evaporate the HFIP. To the resulting thin film of peptide, dimethylsulfoxide (DMSO; Aldrich Chemical Co., Inc.) (25 μl) was added to dissolve the peptide. A 2 mm×7 mm TEFLON™-coated magnetic stir bar was added to each tube. Buffer (475 μL of 100 mM NaCl, 10 mM sodium phosphate, pH 7.4) was added to the DMSO solution with stirring. The resulting mixture was stirred continuously and the optical density was monitored at 400 nm to observe the formation of insoluble peptide aggregates.
Alternatively, β-AP1-40 was dissolved in DMSO as described above at 1.6 mM (6.9 mg/ml) and aliquots (25 μl) were added to stirred buffer (475 μl), followed by monitoring of absorbance at 400 nm. […]

Chain of Aβ peptide (P05067 672-711 limits assumed): as the sequence (P05067 672-711) above

Row | Compound | fibril formation in vitro (Aβ peptide) | aggregation of mixture with natural β-AP1-40 (high molecular weight aggregates on SDS-PAGE) (β-AP1-40; mixture of natural β-AP1-40 and modulator) | self-aggregation of the modulator (high molecular weight aggregates on SDS-PAGE) (β-AP1-40; modulator alone, no natural β-AP) | aggregation of natural β-AP1-40 (turbidity, optical density at 400 nm) (natural β-AP (β-AP1-40); modulator at 1% in the natural β-AP1-40 solution) | aggregation of natural β-AP1-40 (turbidity, optical density at 400 nm) (natural β-AP (β-AP1-40); modulator at 5% in the natural β-AP1-40 solution)
1 | OC[C@H]1O[C@@H]2O[C@H]3[C@H](O)[C@@H](O)[C@@H](O[C@H]4[C@H](O)[C@@H](O)[C@@H](O[C@H]5[C@H](O)[C@@H](O)[C@@H](O[C@H]6[C@H](O)[C@@H](O)[C@@H](O[C@H]7[C@H](O)[C@@H](O)[C@@H](O[C@H]8[C@H](O)[C@@H](O)[C@@H](O[C@H]1[C@H](O)[C@H]2O)O[C@@H]8CO)O[C@@H]7CO)O[C@@H]6CO)O[C@@H]5CO)O[C@@H]4CO)O[C@@H]3CO [β-cyclodextrin] | inhibit fibril formation in vitro |  |  |  | 
2 | N-biotinyl-βAP1-40 |  | reduced amounts of the peptide mixture associated into high molecular weight aggregates | few if any high molecular weight aggregates were observed | markedly inhibited | similarly inhibited aggregation
